Reference: patent US20160046944, “APTAMER TO IL-17 AND USE THEREOF” (THE UNIVERSITY OF TOKYO, published 2016)

T1: IL-17 (Homo sapiens, UniProt Q16552 Q16552:24-155)
T1 sequence: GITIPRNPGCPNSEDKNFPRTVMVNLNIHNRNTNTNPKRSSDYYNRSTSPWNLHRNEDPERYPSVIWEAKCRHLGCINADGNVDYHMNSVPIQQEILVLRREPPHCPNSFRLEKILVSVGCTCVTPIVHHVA

B1: aptamer No. 73 (mixed)
RNA: GGGUAGCCGGAGGAGUCAGUAAUCGGUACCC
modifications: 2'-OMe (M), 2'-F (F), PS (S) as marked; uppercase DNA [2'-OMe: 1-5,7,8,10,13,14,21-31; 2'-F: 11,16,17,18,20; PS: 6,15,19]
B2: aptamer No. 54 (mixed)
RNA: GGGUAGCCGGAGGAGUCAGUAAUCGGUACCC
modifications: 2'-OMe (M), 2'-F (F), PS (S) as marked; uppercase DNA (U = deoxyuridine) [2'-OMe: 1,2,3,4,7,8,10,13,14,21,22,23,24,25,26,28; 2'-F: 11,17,18,27; PS: 6; dU: 16,20]
B3: aptamer No. 62 (mixed)
mixed: GGGUAGCCGGAGGAGTCAGTAAUCGGUACCC
modifications: 2'-OMe (M), 2'-F (F), PS (S) as marked; uppercase DNA [2'-OMe: 1,2,3,4,5,7,8,10,13,14,21,22,23,24,25,26,28,29,30,31; 2'-F: 11,17,18,27; PS: 6]
B4: aptamer No. 94 (mixed)
RNA: GGGUAGCCGGAGGAGUCAGUAAUCGGUACCC
modifications: 2'-OMe (M), 2'-F (F), PS (S) as marked; uppercase DNA [2'-OMe: 1-5,7,8,10,11,13,14,23-26,28-31; 2'-F: 16-18,20,27; PS: 6,15,19; DNA: 9]
B5: aptamer No. 82 (mixed)
mixed: GGGUAGCCGGAGGAGTCAGTAAUCGGUACCC
modifications: 2'-OMe (M), 2'-F (F), PS (S) as marked; uppercase DNA [2'-OMe: 1-5,7,8,10,11,13,14,21-31; 2'-F: 17,18; PS: 6,15,19; DNA: 9,16,20]
B6: aptamer No. 92 (mixed)
RNA: GGGUAGCCGGAGGAGUCAGUAAUCGGUACCC
modifications: 2'-OMe (M), 2'-F (F), PS (S) as marked; uppercase DNA [2'-OMe: 1-5,7,8,10,11,13,14,22-26,28-31; 2'-F: 16-18,20,27; PS: 6,15,19; DNA: 9]
B7: aptamer No. 53 (mixed)
mixed: GGGUAGCCGGAGGAGTCAGTAAUCGGUACCC
modifications: 2'-OMe (M), 2'-F (F), PS (S) as marked; uppercase DNA [2'-OMe: 1,2,3,4,7,8,10,13,14,21,22,23,24,25,26,28; 2'-F: 11,17,18,27; PS: 6,19]
B8: aptamer No. 59 (mixed)
mixed: GGGUAGCCGGAGGAGTCAGTAAUCGGUACCC
modifications: 2'-OMe (M), 2'-F (F), PS (S) as marked; uppercase DNA [2'-OMe: 1,2,3,4,7,8,10,13,14,19,21,22,23,24,25,26,28,29,30,31; 2'-F: 11,17,18,27; PS: 6,15]
B9: aptamer No. 87 (mixed)
mixed: GGGUAGCCGGAGGAGTCAGTGAUCGGUACCC
modifications: 2'-OMe (M), 2'-F (F), PS (S) as marked; uppercase DNA [2'-OMe: 1-5,7,8,10,11,13,14,17,22-31; 2'-F: 18; PS: 6,15,19; DNA: 9,16,20]
B10: aptamer No. 66 (mixed)
mixed: GGGUAGCCGGAGGAGTCAGTAAUCGGUACCC
modifications: 2'-OMe (M), 2'-F (F), PS (S) as marked; uppercase DNA [2'-OMe: 1-5,7,8,10,13,14,21-31; 2'-F: 11,17,18; PS: 6,15,19]
B11: aptamer No. 78 (mixed)
mixed: GGGUAGCCGGAGGAGTCAGTAAUCGGUACCC
modifications: 2'-OMe (M), 2'-F (F) as marked; uppercase DNA [2'-OMe: 1-5,7,8,10,13,14,21-31; 2'-F: 11,17,18; DNA: 9,16,20]
B12: aptamer No. 75 (mixed)
mixed: GGGUAGCCGGAGGAGTCAGTAAUCGGUACCC
modifications: 2'-OMe (M), 2'-F (F) as marked; uppercase DNA [2'-OMe: 1-5,7,8,10,13,14,21-26,28-31; 2'-F: 11,17,18,27]
B13: aptamer No. 68 (mixed)
RNA: GGGUAGCCGGAGGAGUCAGUAAUCGGUACCC
modifications: 2'-OMe (M), 2'-F (F), PS (S) as marked; uppercase DNA [2'-OMe: 1-5,7,8,10,13,14,21-26,29-31; 2'-F: 11,16,17,18,20,27; PS: 6,15,19]
B14: aptamer No. 81 (mixed)
mixed: GGGUAGCCGGAGGAGTCAGTAAUCGGUACCC
modifications: 2'-OMe (M), 2'-F (F), PS (S) as marked; uppercase DNA [2'-OMe: 1-5,7,8,10,11,13,14,17,21-31; 2'-F: 18; PS: 6,15,19; DNA: 9,16,20]
B15: aptamer No. 58 (mixed)
mixed: GGGUAGCCGGAGGAGTCAGTAAUCGGUACCC
modifications: 2'-OMe (M), 2'-F (F), PS (S) as marked; uppercase DNA [2'-OMe: 1,2,3,4,7,8,10,13,14,19,21,22,23,24,25,26,28; 2'-F: 11,17,18,27; PS: 6,12,15]
B16: aptamer No. 52 (mixed)
mixed: GGGUAGCCGGAGGAGTCAGTAAUCGGUACCC
modifications: 2'-OMe (M), 2'-F (F), PS (S) as marked; uppercase DNA [2'-OMe: 1-4,7,8,10,13,14,21-26,28; 2'-F: 11,17,18,27; PS: 6,15]
B17: aptamer No. 65 (mixed)
mixed: GGGUAGCCGGAGGAGTCAGTAAUCGGUACCC
modifications: 2'-OMe (M), 2'-F (F), PS (S) as marked; uppercase DNA [2'-OMe: 1-5,7,8,10,13,14,21-31; 2'-F: 11,17,18; PS: 6]
B18: aptamer No. 72 (mixed)
RNA: GGGUAGCCGGAGGAGUCAGUAAUCGGUACCC
modifications: 2'-OMe (M), 2'-F (F), PS (S) as marked; uppercase DNA [2'-OMe: 1-5,7,8,10,13,14,21-31; 2'-F: 11,16,17,18,20; PS: 6]
B19: aptamer No. 86 (mixed)
mixed: GGGUAGCCGGAGGAGTCAGTGAUCGGUACCC
modifications: 2'-OMe (M), 2'-F (F), PS (S) as marked; uppercase DNA [2'-OMe: 1-5,7,8,10,11,13,14,17,21-31; 2'-F: 18; PS: 6,15,19; DNA: 9,16,20]
B20: aptamer No. 80 (mixed)
RNA: GGGUAGCCGGAGGAGUCAGUAAUCGGUACCC
modifications: 2'-OMe (M), 2'-F (F), PS (S) as marked; uppercase DNA [2'-OMe: 1-5,7,8,10,13,14,21-26,29-31; 2'-F: 11,16,17,18,20,27; PS: 6; DNA: 9,28]
B21: aptamer No. 60 (mixed)
mixed: GGGUAGCCGGAGGAGTCAGTAAUCGGUACCC
modifications: 2'-OMe (M), 2'-F (F), PS (S) as marked; uppercase DNA [2'-OMe: 1,2,3,4,5,7,8,10,13,14,19,21,22,23,24,25,26,28,29,30,31; 2'-F: 11,17,18,27; PS: 6,15]
B22: aptamer No. 90 (mixed)
mixed: GGGUAGCCGGAGGAGTCAGTAAUCGGUACCC
modifications: 2'-OMe (M), 2'-F (F), PS (S) as marked; uppercase DNA [2'-OMe: 1-5,7,8,10,11,13,14,17,21,23-31; 2'-F: 18; PS: 6,15,19; DNA: 9,16,20]
B23: aptamer No. 89 (mixed)
mixed: GGGUAGCCGGAGGAGTCAGTAAUCGGUACCC
modifications: 2'-OMe (M), 2'-F (F), PS (S) as marked; uppercase DNA [2'-OMe: 1-5,7,8,10,11,13,14,17,22-31; 2'-F: 18; PS: 6,15,19; DNA: 9,16,20]
B24: aptamer No. 79 (ssRNA)
RNA: GGGUAGCCGGAGGAGUCAGUAAUCGGUACCC
modifications: 2'-OMe (M), 2'-F (F) as marked [2'-OMe: 1-5,7,8,10,13,14,21-31; 2'-F: 11,16,17,18,20]

target: T1, IL-17; experiment: SPR; IL-17 150 nM, aptamer 12.5 or 50 nM; details: chain copies: 2
Experimental: Whether the synthesized aptamers inhibit the binding of IL-17 and IL-17 receptor was evaluated by the surface plasmon resonance method.
For the measurement, BIAcore T100 manufactured by GE Healthcare Bio Sciences was used. […] As an analyte, IL-17 (150 nM) and each aptamer (12.5 or 50 nM) shown by Table 3 were mixed, maintained for 15 min and after that the mixture was flown.

Compared with B1, B2 is lower in binding signal: 32 % IL-17/IL-17R binding remaining for the first, 25.1 % IL-17/IL-17R binding remaining for the second.

Going from B3 to B4, the binding signal rises from 25.9 % IL-17/IL-17R binding remaining to 29.3 % IL-17/IL-17R binding remaining.

First: B5
Second: B6
The binding signal of the first is lower: 5.28 % IL-17/IL-17R binding remaining for the first, 31.6 % IL-17/IL-17R binding remaining for the second.

Going from B7 to B8, the binding signal rises from 22.6 % IL-17/IL-17R binding remaining to 36.5 % IL-17/IL-17R binding remaining.

First: B9
Second: B10
The binding signal of the first is higher: 32.4 % IL-17/IL-17R binding remaining for the first, 28.7 % IL-17/IL-17R binding remaining for the second.

Compared with B11, B12 is lower in binding signal: 23.3 % IL-17/IL-17R binding remaining for the first, 21.6 % IL-17/IL-17R binding remaining for the second.

Going from B13 to B14, the binding signal falls from 37 % IL-17/IL-17R binding remaining to 34.3 % IL-17/IL-17R binding remaining.

Compared with B15, B16 is lower in binding signal: 33.7 % IL-17/IL-17R binding remaining for the first, 27.6 % IL-17/IL-17R binding remaining for the second.

Compared with B17, B18 is higher in binding signal: 20.3 % IL-17/IL-17R binding remaining for the first, 26.1 % IL-17/IL-17R binding remaining for the second.

Compared with B19, B20 is lower in binding signal: 35.7 % IL-17/IL-17R binding remaining for the first, 25.3 % IL-17/IL-17R binding remaining for the second.

Compared with B21, B22 is higher in binding signal: 31.9 % IL-17/IL-17R binding remaining for the first, 41.2 % IL-17/IL-17R binding remaining for the second.

Compared with B23, B24 is lower in binding signal: 35.1 % IL-17/IL-17R binding remaining for the first, 28.2 % IL-17/IL-17R binding remaining for the second.
